Target: T1, His6-RpoA (purified) (UniProt P0A7Z7 1-329)
T1 construct: also called RNA polymerase alpha subunit
Experiment: pull-down
Conditions: both partners purified

T1 sequence (P0A7Z7 whole entry): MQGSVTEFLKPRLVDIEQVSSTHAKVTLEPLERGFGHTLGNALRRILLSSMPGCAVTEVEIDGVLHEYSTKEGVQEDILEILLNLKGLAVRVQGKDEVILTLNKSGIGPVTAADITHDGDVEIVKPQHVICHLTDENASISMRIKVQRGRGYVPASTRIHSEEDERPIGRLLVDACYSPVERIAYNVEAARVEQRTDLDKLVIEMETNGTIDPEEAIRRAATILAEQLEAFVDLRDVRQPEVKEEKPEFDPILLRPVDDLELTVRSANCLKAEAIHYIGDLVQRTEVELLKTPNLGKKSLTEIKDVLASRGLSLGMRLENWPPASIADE

B1: MBP-InvF (InvF fused to the maltose-binding protein) (natural protein)
chain: MSFSESRHNENCLIQEGALLFCEQAVVAPVSGDLVFRPLKIEVLSKLLAFIDGAGLVDTTYAESDKWVLLSPEFRAIWQDRKRCEYWFLQQIITPSPAFNKVLALLRKSESYWLVGYLLAQSTSGNTMRMLGEDYGVSYTHFRRLCSRALGGKAKSELRNWRMAQSLLNSVEGHENITQLAVNHGYSSPSHFSSEIKELIGVSPRKLSNIIQLADK
notes: also called Transcriptional regulator InvF
B1: binds.

Reference: article PMC10761746 (Scientific Reports, 2024)
